In US20170369542A1 (Pieris, published 2017):
Substitutions are numbered along the chain they refer to.

T1: C-terminal biotinylated human Hepcidin-25 (human, not fully specified; biotinylated via a Lysine residue coupled to the C-terminus via a Mini-PEG linker)
T1 construct: Bought from Bachem AG; Captured on plates via Neutravidin; also called C-terminal biotinylated hepcidin; C-terminal biotinylated hHepcidin
T1 peptide: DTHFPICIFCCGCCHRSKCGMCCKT

T2: synthetic non-modified human Hepcidin-25 (human, not fully specified)
T2 peptide: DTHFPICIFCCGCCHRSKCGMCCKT

T3: cynomolgus Hepcidin-25 (cynomolgus, UniProt A7XEI3 60-84, not fully specified)
T3 construct: mature
T3 peptide: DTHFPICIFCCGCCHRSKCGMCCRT

B1: lipocalin mutein of SEQ ID NO: 3 (designed binder)
chain: QDSTSDLIPAPPLSKVPLQQNFQDNQFHGKWYVVGVAGNGLLREDKDPLKMHATIYELKEDKSYNVTRVLFVRKKCRYYISTFVPGSQPGEFTLGRIKSEPGRTSFLVRVVSTNYNQHAMVFFKMVWQNREVFWITLYGRTKELTSELKENFIRFSKSLGLPENHIVFPVPIDQCIDG
notes: also called Lcn2 mutein
B2: lipocalin mutein of SEQ ID NO: 1, linked to albumine-binding domain (ABD) (SEQ ID NO: 15) (designed binder)
chain: QDSTSDLIPAPPLSKVPLQQNFQDNQFHGKWYVVGLAGNEVLREDKDPMKMWATIYELEEDKSYNVTIVMFLAKKCEYLFQTFVPGSQPGEFTLGDIKSSPGRTSGLVRVVSTNYNQHAMVFFKVVWQNREVFWITLYGRTKELTSELKENFIRFSKSLGLPENHIVFPVPIDQCIDGSAGAVDANSLAEAKVLANRELDKYGVSDYYKNLINNAKTVEGVKALIDEILAALPSAWSHPQFEK
notes: also called ABD-fusion protein
B3: lipocalin mutein of SEQ ID NO: 4 (designed binder)
chain: QDSTSDLIPAPPLSKVPLQQNFQDNQFHGKWYVVGVAGNEMLREDKDPLKMLATIYELKEDKSYNVTRVMFEYKKCVYLIETFVPGSQPGEFTLGTIKSVPGLTSGLVRVVSTNYNQHAMVFFKRVWQNREVFWITLYGRTKELTSELKENFIRFSKSLGLPENHIVFPVPIDQCIDG
notes: also called Lcn2 mutein
B4: lipocalin mutein of SEQ ID NO: 6 (designed binder)
chain: QDSTSDLIPAPPLSKVPLQQNFQDNQFHGKWYVVGLAGNEILREDKDPLKMWATIYELKEDKSYNVTRVQFGEKKCGYGIETFVPGSQPGEFTLGSIKSVPGGTSRLVRVVSTNYNQHAMVFFKFVWQNREVFWITLYGRTKELTSELKENFIRFSKSLGLPENHIVFPVPIDQCIDG
notes: also called Lcn2 mutein
B5: lipocalin mutein of SEQ ID NO: 1 (designed binder)
chain: QDSTSDLIPAPPLSKVPLQQNFQDNQFHGKWYVVGLAGNEVLREDKDPMKMWATIYELEEDKSYNVTIVMFLAKKCEYLFQTFVPGSQPGEFTLGDIKSSPGRTSGLVRVVSTNYNQHAMVFFKTVWQNREVFWITLYGRTKELTSELKENFIRFSKSLGLPENHIVFPVPIDQCIDG
notes: also called Lcn2 mutein; hNGAL mutein
B6: lipocalin mutein of SEQ ID NO: 12 (designed binder)
chain: B5 chain with E59K, K74E, K75E, T125V, E150K
notes: also called Lcn2 mutein
B7: lipocalin mutein of SEQ ID NO: 8 (designed binder)
chain: B5 chain with E59K, F71P, K74E, D96G, S100G, T125V, I135V
notes: also called Lcn2 mutein
B8: lipocalin mutein of SEQ ID NO: 9 (designed binder)
chain: B5 chain with E59K, F71S, T125V, E147G
notes: also called Lcn2 mutein
B9: lipocalin mutein of SEQ ID NO: 11 (designed binder)
chain: B5 chain with V41I, E59K, T125V, E147G
notes: also called Lcn2 mutein
B10: lipocalin mutein of SEQ ID NO: 14, linked to PEG40 (designed binder)
chain: B5 chain with S87C
modifications: branched 40k PEG-maleimide on the free Cys at position 87
notes: hNGAL mutein with Ser 87 back-mutated to Cys and PEGylated there
B11: lipocalin mutein of SEQ ID NO: 10 (designed binder)
chain: QDSTSDLIPAPPLSKVPLQQNFQDNQFHGKWYVVGLAGNEILREDKDPMKMWATIYELKEDRSYNVTIVMFLAKKCEYLFQTFVPGSQPGEFTLGDIKSSPGRTSGLVRVVSTNYNQHAMVFFKVVWQNREVFWITLYGRTKELTPELKENFIRFSKSLGLPENHIVFPVPIDQCIDGF
notes: also called Lcn2 mutein
B12: lipocalin mutein of SEQ ID NO: 7 (designed binder)
chain: QDSTSDLIPAPPLSKVPLQQNFQDNQFHGKWYVVGLAGNRVLREDKDPQKMFATIYELKEDKSYNVTGVDFRTKKCLYSIGTFVPGSQPGEFTLGVIKSQPGWTSYLVRVVSTNYNQHAMVFFKTVWQNREVFWITLYGRTKELTSELKENFIRFSKSLGLPENHIVFPVPIDQCIDG
notes: also called Lcn2 mutein
B13: lipocalin mutein of SEQ ID NO: 5 (designed binder)
chain: QDSTSDLIPAPPLSKVPLQQNFQDNQFHGKWYVVGAAGNSLLREDKDPMKMWATIYELKEDKSYNVTRVNFGGKKCSYLIETFVPGSQPGEFTLGSIKSRPGATSVLVRVVSTNYNQHAMVFFKLVTQNREVFWITLYGRTKELTSELKENFIRFSKSLGLPENHIVFPVPIDQCIDG
notes: also called Lcn2 mutein
B14: lipocalin mutein of SEQ ID NO: 2 (designed binder)
chain: QDSTSDLIPAPPLSKVPLQQNFQDNQFHGKWYVVGTAGNSILREDKDPQKMWATIYELKEDKSYNVTRVFFEGKKCRYVIETFVPGSQPGEFTLGKIKSAPGGTSILVRVVSTNYNQHAMVFFKVVWQNRELFWITLYGRTKELTSELKENFIRFSKSLGLPENHIVFPVPIDQCIDG
notes: also called Lcn2 mutein

Biological target: T1, C-terminal biotinylated human …
Assay: direct ELISA, biotinylated hepcidin captured via Neutravidin, mutein titrated
Description: (§1) A “direct” ELISA was performed to verify the binding affinity and specificity of the selected Lcn2 muteins. Therefore, a constant concentration of 1 μg/ml C-terminal biotinylated hepcidin (Bachem AG, CH) was captured on the surface of a polystyrol plate (Greiner, GE) via Neutravidin (Thermo Scientific, 5 μg/ml). Two step dilution series of purified Lcn2 muteins were incubated with the captured hepcidin for 1 h at room temperature and detected either via the Strep-tag II using a rabbit anti-strep-tag II polyconal antibody (GenScript, USA) or by using a scaffold-specific polyclonal rabbit antibody. In both cases an anti rabbit IgG-HRP conjugate (Abcam, UK) was employed as secondary detection antibody.
(§2) The absorption ΔA at […] was measured in an ELISA reader (Tecan, GE) and the data were fitted with Graphpad Prism software (Statcom, USA).

| Binder | Kd [nM] |
| --- | --- |
| B1 | 0.84 |
| B2 | 0.48 |
| B3 | 1.39 |
| B4 | 0.76 |
| B5 | 0.26 |
| B6 | 0.64 |
| B7 | 0.66 |
| B8 | 0.75 |
| B9 | 0.64 |
| B10 | 2.18 |
| B11 | 0.75 |
| B12 | 0.48 |
| B13 | 4.13 |
| B14 | 2.12 |

Biological target: T2, synthetic non-modified human Hepcidin-25
Assay: cell-based or functional assay

| Binder | IC50 of neutralization of hepcidin-induced (40 nM) internalization and degradation of FPN-GFP in T-REx-293 cells, GFP fluorescence by flow cytometry [nM] |
| --- | --- |
| B2 | 39 |
| B3 | 62 |
| B4 | 65 |
| B5 | 66 |
| B7 | 31 |
| B9 | 31 |
| B10 | 25 |
| B11 | 25 |
| B12 | 79 |
| B14 | 62 |

Biological target: T3, cynomolgus Hepcidin-25
Assay: direct ELISA on cynomolgus hep-25, mutein titrated
Description: as §1, §2

| Binder | Kd [nM] |
| --- | --- |
| B1 | 0.59 |
| B2 | 0.22 |
| B3 | 2.03 |
| B4 | 0.79 |
| B5 | 0.43 |
| B6 | 0.96 |
| B7 | 0.67 |
| B8 | 1.14 |
| B9 | 0.61 |
| B10 | 1.36 |
| B11 | 0.82 |
| B12 | 0.22 |
| B13 | 6.83 |
| B14 | 3.15 |

Biological target: T2, synthetic non-modified human Hepcidin-25
Assay: competition ELISA: non-biotinylated human hepcidin-25 titrated against a constant concentration of mutein; free mutein detected on plate-captured biotinylated human hepcidin
Description: The binding affinity of the Lcn2 muteins to non-modified hepcidin-25 in solution was evaluated in a competition ELISA approach. Therefore, a constant concentration of 1 μg/ml C-terminal biotinylated human hepcidin (Bachem AG, CH) was captured on the surface of a polystyrol plate (Greiner, GE) via Neutravidin (Thermo Scientific, 5 μg/ml, GE). In parallel a two step dilution series of non-biotinylated human hepcidin starting from 1 μM was incubated with a constant concentration of hepcidin-specific mutein for 1 h at room temperature in a non-protein binding 96 well polypropylene plate (Nunc, GE). The constant concentration of lipocalin muteins corresponds to the EC₅₀ of the respective muteins as determined in a direct ELISA as described above in this example. In the following the mixture of non-modified human hepcidin and lipocalin mutein was transferred onto the hepcidin-captured Neutravidin plate. The C-terminal biotinylated hepcidin was allowed to compete with the non-modified hepcidin for Anticalin binding for 20 min. at room temperature. During these 20 min, free lipcocalin mutein was bound to the captured hepcidin and detected via a rabbit anti-strep-tag II polyconal antibody (GenScript, USA). A goat anti-rabbit IgG-HRP conjugate (Abcam, UK) was employed as secondary detection antibody. Parallel to the competition assay, anticalin binding was determined on the same plate in a “direct” ELISA, in order to obtain a standard curve linking the RFU values to anticalin concentration. This curve was then used to standardize competition data to the level of anticalins bounds to the plate and fitted with Graphpad software. IC₅₀ values correspond to the half-maximum amount of lipocalin mutein bound to the plate.

| Binder | IC50 [nM] |
| --- | --- |
| B1 | 0.38 |
| B2 | 0.37 |
| B3 | 0.6 |
| B4 | 1.7 |
| B5 | 0.34 |
| B6 | 0.17 |
| B7 | 0.1 |
| B8 | 0.12 |
| B9 | 0.11 |
| B10 | 1.17 |
| B11 | 0.18 |
| B12 | 1.3 |
| B13 | 10.8 |
| B14 | 9 |

Biological target: T3, cynomolgus Hepcidin-25
Assay: SPR, Biacore T100, mutein amine-coupled to CM5 chip, hepcidin as analyte, 25 C
Description: (§3) Lipocalin muteins were immobilized to a CM5 sensor chip using standard amine chemistry: The surface of the chip was activated using EDC and NHS. Subsequently, 20 μg/mL lipocalin mutein solutions in 10 mM sodium acetate pH 4.5 (60 μg/mL in 10 mM sodium acetate pH 4.0 for pegylated lipocalin mutein) were applied at a flow rate of 5 μL/min until a surface density of 500-700 resonance units (RU) for non-modified lipocalin muteins and of approximately 1600 RU for pegylated lipocalin with the sequence of SEQ ID NO: 13 was achieved. Residual activated groups were saturated with ethanolamine. The reference channels were treated with EDC/NHS following ethanolamine (blank immobilization). All reagents and materials were purchased from GE Healthcare.
(§4) Serial dilutions of human and cynomolgus Hepcidin-25 in running buffer (HBS-EP+, GE Healthcare, BR-1006-68) were applied to the prepared surface. The following parameters were used for the binding assay: contact time 60 s, dissociation time 180-360 s, flow rate 30 μL/min. All measurements were performed on a Biacore T100 instrument (GE Healthcare) at 25° C.
(§5) Data were evaluated with Biacore T100 Evaluation software (V 2.0.1). Double referencing was used. The 1:1 Binding model (Langmuir) was used to fit the raw data.

| Binder | fold higher affinity compared to the human target [fold] |
| --- | --- |
| B5 | ~2 |
| B7 | ~2 |

Biological target: T2, synthetic non-modified human Hepcidin-25
Assay: SPR (Biacore T100), mutein immobilized on CM5 chip, hepcidin-25 in solution, 1:1 model
Description: as §3, §4, §5

| Binder | Kd [nM] | koff [s⁻¹] | kon [M⁻¹ s⁻¹] |
| --- | --- | --- | --- |
| B5 | 0.589 | 0.00116 | 1.97e+06 |
| B7 | 0.123 | 0.000178 | 1.45e+06 |

Biological target: T3, cynomolgus Hepcidin-25
Assay: as above
Description: as §3, §4, §5

| Binder | Kd [nM] | koff [s⁻¹] | kon [M⁻¹ s⁻¹] |
| --- | --- | --- | --- |
| B5 | 0.332 | 0.000934 | 2.84e+06 |
| B7 | 0.066 | 0.000245 | 3.74e+06 |
